From the supplement of paper PMC9112550, “Optimization of the antimicrobial peptide Bac7 by deep mutational scanning” (BMC Biology, 2022) come the findings set out here.
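Note: peptides expressed intracellularly from a pBAD plasmid library in pooled LB shake-flask culture, induced with 0.3% L-arabinose, DNA abundance read by NGS, three biological replicates, DESeq2 with apeglm shrinkage.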

The data set relates to Escherichia coli TOP10. Description: shrunken log2 fold change of peptide-encoding DNA abundance (4.5 h post-induction vs induction); higher = less antimicrobial activity (less host growth inhibition). To be noted: time post-induction: 4.5 h; library: site-saturation at positions 5, 18, 19, 20.
For RRIRYRPPRLPRPRPRPETRPRP, the “shrunken log2 fold change” value amounted to 0.0147.

Consider RRIRIRPPRLPRPRPRPALWPRP, for which the “shrunken log2 fold change” value turned out to be 0.199.

Turning to RRIRARPPRLPRPRPRPASHPRP, the “shrunken log2 fold change” value was found to be 2.2.

On to RRIRARPPRLPRPRPRPTGGPRP, for which the “shrunken log2 fold change” value stood at 0.836.

For the sequence RRIRLRPPRLPRPRPRPPEPPRP, the “shrunken log2 fold change” value stood at 0.232.

With RRIRVRPPRLPRPRPRPYQRPRP, the “shrunken log2 fold change” value is -0.0149.

RRIRSRPPRLPRPRPRPAHNPRP: the “shrunken log2 fold change” value came out at 0.133.

As for RRIRIRPPRLPRPRPRPLCNPRP, the “shrunken log2 fold change” value is -0.807.

Consider RRIRKRPPRLPRPRPRPRRPPRP, for which the “shrunken log2 fold change” value was 0.544.

With RRIRLRPPRLPRPRPRPPEWPRP, the “shrunken log2 fold change” value is 0.682.

Regarding RRIRDRPPRLPRPRPRPDDKPRP, the “shrunken log2 fold change” value was 0.0802.

Consider RRIRTRPPRLPRPRPRPTMHPRP, for which the “shrunken log2 fold change” value came out at 0.0843.

In the case of RRIRQRPPRLPRPRPRPYYAPRP, the “shrunken log2 fold change” value is -0.898.

As for RRIRFRPPRLPRPRPRPRNEPRP, the “shrunken log2 fold change” value is -0.0379.

For RRIRQRPPRLPRPRPRPANQPRP, the “shrunken log2 fold change” value is -0.091.

For RRIRSRPPRLPRPRPRPTTTPRP, the “shrunken log2 fold change” value is 0.0739.

As to RRIRMRPPRLPRPRPRPTWTPRP, the “shrunken log2 fold change” value was determined as 0.667.

Take RRIRHRPPRLPRPRPRPDCFPRP: the “shrunken log2 fold change” value was 0.3.

For the sequence RRIRCRPPRLPRPRPRPCGGPRP, the “shrunken log2 fold change” value came to 0.113.

Consider RRIRMRPPRLPRPRPRPMDWPRP, for which the “shrunken log2 fold change” value is 0.15.

Regarding RRIRMRPPRLPRPRPRPMMTPRP, the “shrunken log2 fold change” value was determined as 0.141.

With RRIRSRPPRLPRPRPRPLDEPRP, the “shrunken log2 fold change” value was found to be 0.189.

Turning to RRIRIRPPRLPRPRPRPGMEPRP, the “shrunken log2 fold change” value is -0.375.

On to RRIRSRPPRLPRPRPRPAKNPRP, for which the “shrunken log2 fold change” value worked out at 0.157.

Turning to RRIRRRPPRLPRPRPRPNDDPRP, the “shrunken log2 fold change” value was determined as 0.0687.

On to RRIRYRPPRLPRPRPRPDKGPRP, for which the “shrunken log2 fold change” value is -0.0723.

Turning to RRIRKRPPRLPRPRPRPYAKPRP, the “shrunken log2 fold change” value is -0.0729.

For the sequence RRIRERPPRLPRPRPRPFVSPRP, the “shrunken log2 fold change” value was 0.176.

As for RRIRERPPRLPRPRPRPSIRPRP, the “shrunken log2 fold change” value was -0.242.

RRIRNRPPRLPRPRPRPIIGPRP: the “shrunken log2 fold change” value stood at 0.0444.

Take RRIRFRPPRLPRPRPRPVTHPRP: the “shrunken log2 fold change” value is -0.303.

In the case of RRIRQRPPRLPRPRPRPRWTPRP, the “shrunken log2 fold change” value is 0.25.

Consider RRIRGRPPRLPRPRPRPPGKPRP, for which the “shrunken log2 fold change” value amounted to 0.807.

As to RRIRPRPPRLPRPRPRPLWSPRP, the “shrunken log2 fold change” value was -0.0489.

As to RRIRDRPPRLPRPRPRPFFHPRP, the “shrunken log2 fold change” value came to 0.119.

On to RRIRPRPPRLPRPRPRPGKCPRP, for which the “shrunken log2 fold change” value is -0.125.

As for RRIRVRPPRLPRPRPRPSQMPRP, the “shrunken log2 fold change” value is -0.0502.

For the sequence RRIRNRPPRLPRPRPRPAEQPRP, the “shrunken log2 fold change” value is -0.018.

Take RRIRTRPPRLPRPRPRPCTCPRP: the “shrunken log2 fold change” value was -0.00101.

In the case of RRIRLRPPRLPRPRPRPDTNPRP, the “shrunken log2 fold change” value was -0.103.

In the case of RRIRFRPPRLPRPRPRPKLCPRP, the “shrunken log2 fold change” value is -0.14.

With RRIRWRPPRLPRPRPRPYWKPRP, the “shrunken log2 fold change” value is -0.123.

With RRIRCRPPRLPRPRPRPAQAPRP, the “shrunken log2 fold change” value stood at 0.147.

Regarding RRIRPRPPRLPRPRPRPHWSPRP, the “shrunken log2 fold change” value is 0.26.

With RRIRHRPPRLPRPRPRPMLMPRP, the “shrunken log2 fold change” value was -0.121.

Take RRIRLRPPRLPRPRPRPQSRPRP: the “shrunken log2 fold change” value was -0.377.

For the sequence RRIRQRPPRLPRPRPRPVTMPRP, the “shrunken log2 fold change” value is -0.0817.

As for RRIRNRPPRLPRPRPRPAAAPRP, the “shrunken log2 fold change” value was 0.43.

As to RRIRRRPPRLPRPRPRPDQSPRP, the “shrunken log2 fold change” value was 0.0941.

As to RRIRVRPPRLPRPRPRPLNTPRP, the “shrunken log2 fold change” value is -0.224.

On to RRIRMRPPRLPRPRPRPLMEPRP, for which the “shrunken log2 fold change” value is 1.68.

RRIRARPPRLPRPRPRPTNAPRP: the “shrunken log2 fold change” value was 0.434.

For RRIRIRPPRLPRPRPRPPVEPRP, the “shrunken log2 fold change” value was -0.0536.

RRIRNRPPRLPRPRPRPYDLPRP: the “shrunken log2 fold change” value was -0.166.

Take RRIRDRPPRLPRPRPRPVAHPRP: the “shrunken log2 fold change” value is -0.0445.

As to RRIRLRPPRLPRPRPRPKWVPRP, the “shrunken log2 fold change” value was -0.25.

With RRIRCRPPRLPRPRPRPQMCPRP, the “shrunken log2 fold change” value was -0.157.

As for RRIRIRPPRLPRPRPRPYSDPRP, the “shrunken log2 fold change” value was -0.186.

For the sequence RRIRGRPPRLPRPRPRPNNQPRP, the “shrunken log2 fold change” value is -0.011.

Consider RRIRWRPPRLPRPRPRPSMVPRP, for which the “shrunken log2 fold change” value was -0.129.

For the sequence RRIRNRPPRLPRPRPRPHPVPRP, the “shrunken log2 fold change” value is -0.269.

As for RRIRMRPPRLPRPRPRPFAIPRP, the “shrunken log2 fold change” value was -0.0351.

As for RRIRQRPPRLPRPRPRPYFIPRP, the “shrunken log2 fold change” value is -1.23.

In the case of RRIRFRPPRLPRPRPRPFGSPRP, the “shrunken log2 fold change” value was -0.00247.

As to RRIRKRPPRLPRPRPRPWFFPRP, the “shrunken log2 fold change” value was -0.043.

Regarding RRIRMRPPRLPRPRPRPRWHPRP, the “shrunken log2 fold change” value is 0.378.

As for RRIRGRPPRLPRPRPRPTMMPRP, the “shrunken log2 fold change” value is 0.541.

In the case of RRIRERPPRLPRPRPRPPIEPRP, the “shrunken log2 fold change” value is -0.227.

RRIRMRPPRLPRPRPRPCGLPRP: the “shrunken log2 fold change” value was 0.533.

For the sequence RRIRMRPPRLPRPRPRPRYRPRP, the “shrunken log2 fold change” value amounted to 0.307.

Take RRIRNRPPRLPRPRPRPELEPRP: the “shrunken log2 fold change” value was 0.47.

On to RRIRARPPRLPRPRPRPGFGPRP, for which the “shrunken log2 fold change” value worked out at 0.667.

For RRIRFRPPRLPRPRPRPLKTPRP, the “shrunken log2 fold change” value is -0.112.

In the case of RRIRARPPRLPRPRPRPTYRPRP, the “shrunken log2 fold change” value worked out at 0.0376.

As for RRIRSRPPRLPRPRPRPYYFPRP, the “shrunken log2 fold change” value was -0.664.

Turning to RRIRERPPRLPRPRPRPDLHPRP, the “shrunken log2 fold change” value is -0.262.

For RRIRIRPPRLPRPRPRPRVFPRP, the “shrunken log2 fold change” value amounted to 0.0961.

With RRIRVRPPRLPRPRPRPFLGPRP, the “shrunken log2 fold change” value is -0.0486.

Turning to RRIRPRPPRLPRPRPRPVIFPRP, the “shrunken log2 fold change” value was -0.11.

Consider RRIRHRPPRLPRPRPRPEKEPRP, for which the “shrunken log2 fold change” value was -0.00451.

In the case of RRIRDRPPRLPRPRPRPAWGPRP, the “shrunken log2 fold change” value came out at 0.769.

On to RRIRSRPPRLPRPRPRPFGRPRP, for which the “shrunken log2 fold change” value was -0.0701.

Consider RRIRHRPPRLPRPRPRPWVDPRP, for which the “shrunken log2 fold change” value was found to be 0.0471.

Consider RRIRARPPRLPRPRPRPHTAPRP, for which the “shrunken log2 fold change” value was determined as 0.172.

In the case of RRIRFRPPRLPRPRPRPYGQPRP, the “shrunken log2 fold change” value is -0.101.

With RRIRTRPPRLPRPRPRPQGAPRP, the “shrunken log2 fold change” value is -0.0215.

Take RRIRPRPPRLPRPRPRPICCPRP: the “shrunken log2 fold change” value was -0.139.

As to RRIRFRPPRLPRPRPRPVYIPRP, the “shrunken log2 fold change” value was -1.22.

For RRIRFRPPRLPRPRPRPRVWPRP, the “shrunken log2 fold change” value was determined as 0.963.

On to RRIRARPPRLPRPRPRPTQEPRP, for which the “shrunken log2 fold change” value is 0.0329.

RRIRYRPPRLPRPRPRPFMGPRP: the “shrunken log2 fold change” value is -0.316.
